Changes are numbered by the printed parent chain. Numbers in names are those of the source.
T1: cynomolgus monkey FcγRIIa1 extracellular domain, C-terminal His-tag (cynomolgus monkey)
T1 construct: also called cyno FcγRIIa1; cynoFcgRIIa1
T1 chain: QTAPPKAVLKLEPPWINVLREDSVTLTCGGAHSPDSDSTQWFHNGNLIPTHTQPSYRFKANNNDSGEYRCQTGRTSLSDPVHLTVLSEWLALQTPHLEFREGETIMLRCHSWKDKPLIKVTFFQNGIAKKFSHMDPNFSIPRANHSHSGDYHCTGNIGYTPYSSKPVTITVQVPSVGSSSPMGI

T2: cynomolgus monkey FcγRIIa2 extracellular domain, C-terminal His-tag (cynomolgus monkey)
T2 construct: also called cyno FcγRIIa2; cynoFcgRIIa2
T2 chain: T1 chain with P95T, T121A, I127K, A128S, K130N, D135N, R142Q

T3: cynomolgus monkey FcγRIIa3 extracellular domain, C-terminal His-tag (cynomolgus monkey)
T3 construct: also called cyno FcγRIIa3; cynoFcgRIIa3
T3 chain: T1 chain with P95T, T121A, A128S, H133P, D135N

T4: cynomolgus monkey FcγRIIb extracellular domain, C-terminal His-tag (cynomolgus monkey)
T4 construct: also called cyno FcγRIIb; cynoFcγRIIb
T4 chain: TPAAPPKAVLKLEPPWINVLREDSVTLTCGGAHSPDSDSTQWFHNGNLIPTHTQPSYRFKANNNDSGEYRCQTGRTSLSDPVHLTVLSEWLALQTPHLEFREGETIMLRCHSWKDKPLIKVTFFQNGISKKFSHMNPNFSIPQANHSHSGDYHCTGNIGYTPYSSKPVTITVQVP

T5: cynomolgus monkey FcγRIIIaS extracellular domain, C-terminal His-tag (cynomolgus monkey, UniProt Q8SPW2 21-206 at identity 1.00))
T5 construct: also called cyno FcγRIIIaS; cynoFcγRIIIaS
T5 chain: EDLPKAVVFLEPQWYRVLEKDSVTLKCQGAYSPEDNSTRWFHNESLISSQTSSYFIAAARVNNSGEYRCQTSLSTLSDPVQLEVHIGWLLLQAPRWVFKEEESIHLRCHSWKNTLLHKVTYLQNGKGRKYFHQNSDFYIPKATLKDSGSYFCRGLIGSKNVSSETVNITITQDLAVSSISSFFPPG

T6: human FcγRIIaH extracellular domain, C-terminal His-tag (human, UniProt P12318 34-217)
T6 construct: also called human FcγRIIa (type H); FcgRIIaH
T6 sequence: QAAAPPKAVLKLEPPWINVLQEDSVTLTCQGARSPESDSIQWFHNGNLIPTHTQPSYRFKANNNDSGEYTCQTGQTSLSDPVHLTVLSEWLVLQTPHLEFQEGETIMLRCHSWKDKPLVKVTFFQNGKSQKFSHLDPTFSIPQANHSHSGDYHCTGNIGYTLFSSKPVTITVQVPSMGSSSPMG

T7: human FcγRIIaR extracellular domain, C-terminal His-tag (human, UniProt P12318 34-217)
T7 construct: also called human FcγRIIa (type R); FcgRIIaR
T7 chain: T6 sequence with H134R

T8: human FcγRIIb extracellular domain, C-terminal His-tag (human, UniProt P31994 43-217)
T8 construct: also called human FcgRIIb; FcgRIIb
T8 sequence: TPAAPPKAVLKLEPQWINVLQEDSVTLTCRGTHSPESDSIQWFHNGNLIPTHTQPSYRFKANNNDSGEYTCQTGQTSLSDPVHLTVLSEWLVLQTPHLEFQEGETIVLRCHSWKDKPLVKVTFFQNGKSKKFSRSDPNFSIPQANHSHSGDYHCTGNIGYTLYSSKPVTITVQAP

T9: cynomolgus monkey FcγRIIa1 extracellular domain with C-terminal His-tag (cynomolgus monkey)
T9 construct: also called cyno FcgRIIa1; cynoFcγRIIa1
T9 chain: T1 chain

T10: cynomolgus monkey FcγRIIa2 extracellular domain with C-terminal His-tag (cynomolgus monkey)
T10 construct: also called cyno FcgRIIa2; cynoFcγRIIa2
T10 chain: T1 chain with P95T, T121A, I127K, A128S, K130N, D135N, R142Q

T11: cynomolgus monkey FcγRIIa3 extracellular domain with C-terminal His-tag (cynomolgus monkey)
T11 construct: also called cyno FcgRIIa3; cynoFcγRIIa3
T11 chain: T1 chain with P95T, T121A, A128S, H133P, D135N

T12: cynomolgus monkey FcγRIIb extracellular domain with C-terminal His-tag (cynomolgus monkey)
T12 construct: also called cyno FcgRIIb; cynoFcγRIIb
T12 chain: T4 chain

T13: cynomolgus monkey FcγRIIIaS extracellular domain with C-terminal His-tag (cynomolgus monkey, UniProt Q8SPW2 21-206 at identity 1.00))
T13 construct: also called cyno FcgRIIIaS; cynoFcγRIIIaS
T13 chain: T5 chain

T14: human FcγRIIaH extracellular domain with C-terminal His-tag (human, UniProt P12318 34-217)
T14 construct: also called human FcgRIIaH; FcγRIIa (type H)
T14 sequence: T6 sequence

T15: human FcγRIIaR extracellular domain with C-terminal His-tag (human, UniProt P12318 34-217)
T15 construct: also called human FcgRIIaR; FcγRIIa (type R)
T15 chain: T6 sequence with H134R

T16: human FcγRIIb extracellular domain with C-terminal His-tag (human, UniProt P31994 43-217)
T16 construct: also called human FcgRIIb
T16 sequence: T8 sequence

B1: M103205H795-MY440/M103202L889-SK1 (antibody, human IgG1, kappa)
heavy: QVTLKESGPVLVKPTETLTLTCTVSGIDLSHDDISWVRQAPGKGLEWVGIISYAGSTYYASWAKGRLTISKDTSKNQVVLTMTNMDPVDTATYYCARGVPAYSHGGDLWGQGTLVTVSSASTKGPSVFPLAPSSKSTSGGTAALGCLVKDYFPEPVTVSWNSGALTSGVHTFPAVLQSSGLYSLSSVVTVPSSSLGTQTYICNVNHKPSNTKVDKKVEPKSCDKTHTCPPCPAPELWNGPSVFLFPPKPKDTLMISRTPEVTCVVVDVSDEDPEVKFNWYVDGVEVHNAKTKPREELYNSTYRVVSVLTVLHQDWLNGKEYKCKVSNKALPKPIEKTISKAKGQPREPQVYTLPPSREEMTKNQVSLTCLVKGFYPSDIAVEWESNGQPENNYKTTPPVLDSDGSFFLYSKLTVDKSRWQQGNVFSCSVMHEALHNHYTQKSLSLSP
light: DIVMTQSPATLSLSPGERATLSCTSSQSVYHANWLSWFQQKPGQPPKLLIYWASTLAYGVPSRFSGSGSGTDFTLTISSLQPEDAATYYCAGGYGGGRYAFGQGTKVEIKRTVAAPSVFIFPPSDEQLKSGTASVVCLLNNFYPREAKVQWKVDNALQSGNSQESVTEQDSKDSTYSLSSTLTLSKADYEKHKVYACEVTHQGLSSPVTKSFNRGEC
notes: Substitutions introduced into M103205H795-SG1; expressed with M103202L889-SK1 as light chain
B2: M103205H795-MY538/M103202L889-SK1 (Table 19: L235W/G236N/H268D/Q295L/K326T/A330K) (antibody, human IgG1, kappa)
heavy: B1 heavy with K328T
light: B1 light
notes: also called MY518 (as the text names this set of substitutions)
B3: M103205H795-MY535/M103202L889-SK1 (antibody, human IgG1, kappa)
heavy: B1 heavy with A233G, L236W, W237L, N238T, L297Q
light: B1 light
notes: Substitutions introduced into M103205H795-SG1, expressed with M103202L889-SK1 as light chain; EU numbering
B4: M103205H795-MY533/M103202L889-SK1 (antibody, human IgG1, kappa)
heavy: B1 heavy with L236W, W237L, N238T, S241V
light: B1 light
notes: as for B3
B5: M103205H795-MY536/M103202L889-SK1 (antibody, human IgG1, kappa)
heavy: B1 heavy with A233G, L236W, W237L, N238T, S241V, L297Q
light: B1 light
notes: as for B3
B6: M103205H795-MY537/M103202L889-SK1 (antibody, human IgG1, kappa)
heavy: B1 heavy with A233G, L236W, W237L, N238T, S241V
light: B1 light
notes: as for B3
B7: M103205H795-MY534/M103202L889-SK1 (antibody, human IgG1, kappa)
heavy: B1 heavy with W237L, N238T, S241V
light: B1 light
notes: as for B3

Target: T1, cynomolgus monkey FcγRIIa1 …
Assay: SPR (Biacore), antibody captured, FcgR analyte

Binder	Kd
B1	1600 nM
B2	890 nM

Target: T2, cynomolgus monkey FcγRIIa2 …
Assay: SPR (Biacore), antibody captured, FcgR analyte

Binder	Kd
B1	1800 nM
B2	900 nM

Target: T3, cynomolgus monkey FcγRIIa3 …
Assay: SPR (Biacore), antibody captured, FcgR analyte

Binder	Kd
B1	48000 nM
B2	2400 nM

Target: T4, cynomolgus monkey FcγRIIb extracellular …
Assay: SPR (Biacore), antibody captured, FcgR analyte

Binder	Kd
B1	460 nM
B2	260 nM

Target: T5, cynomolgus monkey FcγRIIIaS …
Assay: SPR (Biacore), antibody captured, FcgR analyte

Binder	Kd
B1	9300 nM
B2	4200 nM

The binders below were run against T6, human FcγRIIaH extracellular domain, … (assay: SPR (Biacore), antibody captured, FcgR analyte).

Binder	Kd
B1	910 nM
B2	850 nM

Target: T7, human FcγRIIaR extracellular domain, …
Assay: SPR (Biacore), antibody captured, FcgR analyte

Binder	Kd
B1	11000 nM
B2	670 nM

What follows are binders tested against T8, human FcγRIIb extracellular domain, … (assay: SPR (Biacore), antibody captured, FcgR analyte).

Binder	Kd
B1	800 nM
B2	480 nM

Each binder was assayed against T17, human FcγRIIIaV extracellular domain, C-terminal His-tag (human, UniProt P08637 17-208) (assay: SPR (Biacore), antibody captured, FcgR analyte).
T17 construct: also called human FcgRIIIaV; FcgRIIIaV
T17 sequence (P08637 17-208 F176V): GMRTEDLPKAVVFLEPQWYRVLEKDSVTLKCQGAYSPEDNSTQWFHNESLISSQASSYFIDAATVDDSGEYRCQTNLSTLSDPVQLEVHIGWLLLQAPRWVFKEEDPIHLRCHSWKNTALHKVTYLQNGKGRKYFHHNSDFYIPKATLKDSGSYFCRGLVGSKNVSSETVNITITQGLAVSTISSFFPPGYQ

Binder	Kd
B1	27000 nM
B2	23000 nM

Target: T9, cynomolgus monkey FcγRIIa1 …
Assay: SPR (BIACORE), antibody captured, FcgR analyte
Experimental: (§1) The kinetic analysis of interactions between these antibodies and FcγR was carried out using BIACORE® T200 or BIACORE® 4000 (GE Healthcare). HBS-EP+ (GE Healthcare) was used as the running buffer, and the measurement temperature was set to 25° C. A chip produced by immobilizing Protein A. Protein A/G or mouse anti-human IgG kappa light chain (BD Biosciences) onto a Series S Sensor Chip CM4 or CM5 (GE Healthcare) by the amine-coupling method was used. […] After the measurement, the antibody captured on the chip was washed off by allowing reaction with 10 mM glycine-HCl, pH1.5 and 25 mM NaOH so that the chip was regenerated and used repeatedly. The sensorgrams obtained as measurement results were analyzed by the 1:1 Langmuir binding model using the BIACORE® Evaluation Software to calculate the binding rate constant ka (L/mol/s) and dissociation rate constant kd (l/s), and the dissociation constant KD (mol/L) was calculated from these values. […] Regarding such interactions, KD values were calculated using the following 1:1 binding model described in BIACORE® T100 Software Handbook BR1006-48 Edition AE.
(§2) The behavior of interacting molecules according to the 1:1 binding model on BIACORE® can be described by Equation 1: Req=C·R max/(KD+C)+RI, wherein, Req is a plot of steady-state binding levels to analyte concentration. C is concentration, RI is bulk refractive index contribution in the sample, and Rmax is analyte binding capacity of the surface. When this equation is rearranged, KD can be expressed as Equation 2: KD=C·Rmax/(Req−RI)−C. KD can be calculated by substituting the values of Rmax, RI, and C into Equation 1 or Equation 2. From the current measurement conditions, RI=0, C=2 μmol/L can be used.

Binder	Kd
B3	1300 nM
B4	800 nM
B5	1300 nM
B6	1200 nM
B7	1300 nM

Target: T10, cynomolgus monkey FcγRIIa2 …
Assay: SPR (BIACORE), antibody captured, FcgR analyte
Experimental: as §1, §2

Binder	Kd
B3	1400 nM
B4	730 nM
B5	1100 nM
B6	1100 nM
B7	1300 nM

Target: T11, cynomolgus monkey FcγRIIa3 …
Assay: SPR (BIACORE), antibody captured, FcgR analyte
Experimental: as §1, §2

Binder	Kd
B3	3000 nM
B4	1200 nM
B5	980 nM
B6	1400 nM
B7	1200 nM

Target: T12, cynomolgus monkey FcγRIIb extracellular …
Assay: SPR (BIACORE), antibody captured, FcgR analyte
Experimental: as §1, §2

Binder	Kd
B3	410 nM
B4	250 nM
B5	400 nM
B6	320 nM
B7	420 nM

Target: T13, cynomolgus monkey FcγRIIIaS …
Assay: SPR (BIACORE), antibody captured, FcgR analyte
Experimental: as §1, §2

Binder	Kd
B3	2100 nM
B4	1100 nM
B5	1600 nM
B6	1500 nM
B7	1700 nM

These binders were tested against T14, human FcγRIIaH extracellular domain … (assay: SPR (BIACORE), antibody captured, FcgR analyte).
Experimental: as §1, §2

Binder	Kd
B3	390 nM
B4	210 nM
B5	290 nM
B6	280 nM
B7	170 nM

Target: T15, human FcγRIIaR extracellular domain …
Assay: SPR (BIACORE), antibody captured, FcgR analyte
Experimental: as §1, §2

Binder	Kd
B3	640 nM
B4	200 nM
B5	220 nM
B6	370 nM
B7	190 nM

What follows are binders tested against T16, human FcγRIIb extracellular domain with … (assay: SPR (BIACORE), antibody captured, FcgR analyte).
Experimental: as §1, §2

Binder	Kd
B3	1900 nM
B4	950 nM
B5	990 nM
B6	1000 nM
B7	120 nM

These binders were tested against T18, human FcγRIIIaV extracellular domain with C-terminal His-tag (human, UniProt P08637 17-208) (assay: SPR (BIACORE), antibody captured, FcgR analyte).
T18 construct: also called human FcgRIIIaV
T18 sequence (P08637 17-208 F176V): as above
Experimental: as §1, §2

Binder	Kd
B3	3200 nM
B4	1800 nM
B5	3700 nM
B6	3300 nM
B7	4300 nM
